# Test results: IntAct's records for PubMed 18200045
# B1: Epidermal growth factor receptor substrate 15 (Homo sapiens), P42566 (parent)
# chain: MAAAAQLSLTQLSSGNPVYEKYYRQVDTGNTGRVLASDAAAFLKKSGLPDLILGKIWDLADTDGKGILNKQEFFVALRLVACAQNGLEVSLSSLNLAVPPPRFHDTSSPLLISGTSAAELPWAVKPEDKAKYDAIFDSLSPVNGFLSGDKVKPVLLNSKLPVDILGRVWELSDIDHDGMLDRDEFAVAMFLVYCALEKEPVPMSLPPALVPPSKRKTWVVSPAEKAKYDEIFLKTDKDMDGFVSGLEVREIFLKTGLPSTLLAHIWSLCDTKDCGKLSKDQFALAFHLISQKLIKGIDPPHVLTPEMIPPSDRASLQKNIIGSSPVADFSAIKELDTLNNEIVDLQREKNNVEQDLKEKEDTIKQRTSEVQDLQDEVQRENTNLQKLQAQKQQVQELLDELDEQKAQLEEQLKEVRKKCAEEAQLISSLKAELTSQESQISTYEEELAKAREELSRLQQETAELEESVESGKAQLEPLQQHLQDSQQEISSMQMKLMEMKDLENHNSQLNWCSSPHSILVNGATDYCSLSTSSSETANLNEHVEGQSNLESEPIHQESPARSSPELLPSGVTDENEVTTAVTEKVCSELDNNRHSKEEDPFNVDSSSLTGPVADTNLDFFQSDPFVGSDPFKDDPFGKIDPFGGDPFKGSDPFASDCFFRQSTDPFATSSTDPFSAANNSSITSVETLKHNDPFAPGGTVVAASDSATDPFASVFGNESFGGGFADFSTLSKVNNEDPFRSATSSSVSNVVITKNVFEETSVKSEDEPPALPPKIGTPTRPCPLPPGKRSINKLDSPDPFKLNDPFQPFPGNDSPKEKDPEIFCDPFTSATTTTNKEADPSNFANFSAYPSEEDMIEWAKRESEREEEQRLARLNQQEQEDLELAIALSKSEISEA
# partner: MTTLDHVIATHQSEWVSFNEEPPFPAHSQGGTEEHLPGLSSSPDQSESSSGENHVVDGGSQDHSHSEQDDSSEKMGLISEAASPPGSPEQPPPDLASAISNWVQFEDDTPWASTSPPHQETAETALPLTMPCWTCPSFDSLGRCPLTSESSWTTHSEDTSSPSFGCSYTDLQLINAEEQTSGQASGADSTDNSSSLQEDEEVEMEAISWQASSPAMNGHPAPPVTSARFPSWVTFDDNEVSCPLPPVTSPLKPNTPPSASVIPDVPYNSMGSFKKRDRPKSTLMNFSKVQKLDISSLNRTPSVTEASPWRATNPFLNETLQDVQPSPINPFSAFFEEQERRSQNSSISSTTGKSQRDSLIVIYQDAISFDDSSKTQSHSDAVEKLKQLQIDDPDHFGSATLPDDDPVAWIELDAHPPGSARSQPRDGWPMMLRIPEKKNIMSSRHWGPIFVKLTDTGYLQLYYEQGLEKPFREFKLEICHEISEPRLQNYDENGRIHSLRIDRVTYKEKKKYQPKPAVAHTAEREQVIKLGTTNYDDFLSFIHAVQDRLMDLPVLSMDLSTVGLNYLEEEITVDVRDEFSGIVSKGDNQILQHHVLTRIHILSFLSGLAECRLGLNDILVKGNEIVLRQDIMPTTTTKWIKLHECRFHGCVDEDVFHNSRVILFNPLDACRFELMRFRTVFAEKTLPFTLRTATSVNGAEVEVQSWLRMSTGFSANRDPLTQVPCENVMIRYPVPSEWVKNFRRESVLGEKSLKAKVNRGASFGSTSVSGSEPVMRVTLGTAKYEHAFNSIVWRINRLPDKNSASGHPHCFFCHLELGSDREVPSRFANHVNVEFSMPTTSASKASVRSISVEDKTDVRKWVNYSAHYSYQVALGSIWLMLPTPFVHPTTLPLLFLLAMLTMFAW
# Variants of: B1
# Conditions: with ston2_human STON2, Q8WXE9
row,Variant,effect of a mutation on the interaction
1,W169A,decreasing interaction

# Variants of: B1
# Conditions: with ston2_human STON2, Q8WXE9
# Remark: another data set of the same source
row,Variant,effect of a mutation on the interaction
1,W169A,disrupting interaction

# Variants of: B1
# Conditions: with ston2_human STON2, Q8WXE9
# Remark: another data set of the same source
row,Variant,effect of a mutation on the interaction
1,Y193D,decreasing interaction

# Variants of: B1
# Conditions: with ston2_human STON2, Q8WXE9
# Remark: another data set of the same source
row,Variant,effect of a mutation on the interaction
1,V154E,decreasing interaction

# Variants of: B1
# Conditions: with ston2_human STON2, Q8WXE9
# Remark: another data set of the same source
row,Variant,effect of a mutation on the interaction
1,V154E,disrupting interaction

# Variants of: B1
# Conditions: with ston2_human STON2, Q8WXE9
# Remark: another data set of the same source
row,Variant,effect of a mutation on the interaction
1,W266A,decreasing interaction
